This note sets out measurements from paper PMC3335792, “M. tuberculosis Sliding β-Clamp Does Not Interact Directly with the NAD^+ -Dependent DNA Ligase” (PLoS ONE, 2012).

The target of series [1] is T1, Mtbβ-clamp labeled with OregonGreen488 maleimide (Mtbβ-clamp^OG) (M. tuberculosis, UniProt P9WNU1 1-402, OregonGreen488 maleimide label (residue not stated)).
T1 construct: also called Mtbβ^OG-Clamp
T1 sequence: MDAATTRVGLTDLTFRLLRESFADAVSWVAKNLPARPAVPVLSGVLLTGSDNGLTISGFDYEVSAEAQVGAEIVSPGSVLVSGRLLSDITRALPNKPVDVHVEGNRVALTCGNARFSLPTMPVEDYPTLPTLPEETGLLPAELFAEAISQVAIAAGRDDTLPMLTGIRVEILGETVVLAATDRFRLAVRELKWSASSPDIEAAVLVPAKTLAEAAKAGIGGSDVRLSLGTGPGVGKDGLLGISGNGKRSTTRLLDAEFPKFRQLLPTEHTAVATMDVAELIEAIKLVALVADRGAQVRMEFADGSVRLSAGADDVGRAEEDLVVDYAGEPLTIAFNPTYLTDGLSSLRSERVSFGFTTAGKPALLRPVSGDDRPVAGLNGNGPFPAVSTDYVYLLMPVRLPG
Kind of series: other fluorescence titration; OregonGreen488-labeled β-clamp (50 or 100 nM in the methods, 90 nM in the legend) titrated with the partner protein; 20 mM Tris-Cl pH 7.5, 8 mM MgCl2, 1 mM DTT, 0.2 mM EDTA, 50 mM NaCl, 0.5 mM ATP, 22°C; emission at 510 nm; apparent Kd. As to conditions: both partners purified.

Series [2] concerns the molecule itself. Kind of series: crystal structure; Mtbβ-Clamp, hanging drop, 9% isopropanol, 12% PEG4K, 0.1 M Na HEPES pH 7.0, 295 K; space group C222_(1); two chains in the asymmetric unit.

B1: γ-subunit of the DNA clamp loader complex of M. tuberculosis (Rv3721c) (natural protein)
chain: MALYRKYRPASFAEVVGQEHVTAPLSVALDAGRINHAYLFSGPRGCGKTSSARILARSLNCAQGPTANPCGVCESCVSLAPNAPGSIDVVELDAASHGGVDDTRELRDRAFYAPVQSRYRVFIVDEAHMVTTAGFNALLKIVEEPPEHLIFIFATTEPEKVLPTIRSRTHHYPFRLLPPRTMRALLARICEQEGVVVDDAVYPLVIRAGGGSPRDTLSVLDQLLAGAADTHVTYTRALGLLGVTDVALIDDAVDALAACDAAALFGAIESVIDGGHDPRRFATDLLERFRDLIVLQSVPDAASRGVVDAPEDALDRMREQAARIGRATLTRYAEVVQAGLGEMRGATAPRLLLEVVCARLLLPSASDAESALLQRVERIETRLDMSIPAPQAVPRPSAAA
notes: γ-subunit of the DNA clamp loader (DNA polymerase III subunit gamma/tau) of M. tuberculosis, Rv3721c; also called γ-clamp loader; Mtb-γ-subunit
Take B1: in series [1], the Kd was found to be 23.8 nM.

B2: M. tuberculosis sliding β-clamp (Mtbβ-clamp, Rv0002) (natural protein)
chain: MDAATTRVGLTDLTFRLLRESFADAVSWVAKNLPARPAVPVLSGVLLTGSDNGLTISGFDYEVSAEAQVGAEIVSPGSVLVSGRLLSDITRALPNKPVDVHVEGNRVALTCGNARFSLPTMPVEDYPTLPTLPEETGLLPAELFAEAISQVAIAAGRDDTLPMLTGIRVEILGETVVLAATDRFRLAVRELKWSASSPDIEAAVLVPAKTLAEAAKAGIGGSDVRLSLGTGPGVGKDGLLGISGNGKRSTTRLLDAEFPKFRQLLPTEHTAVATMDVAELIEAIKLVALVADRGAQVRMEFADGSVRLSAGADDVGRAEEDLVVDYAGEPLTIAFNPTYLTDGLSSLRSERVSFGFTTAGKPALLRPVSGDDRPVAGLNGNGPFPAVSTDYVYLLMPVRLPG
notes: also called beta clamp; Native Mtbβ-Clamp
Regarding B2, in series [2], the binding result is reported as “binds”.
